{
  "source": "patent US20180327499A1",
  "about": "(published 2018)",
  "binders": {"B1": {"name": "transfected HEK-293 (receptor)", "chain": "MGWIRGRRSRHSWEMSEFHNYNLDLKKSDFSTRWQKQRCPVVKSKCRENASPFFFCCFIAVAMGIRFIIMVTIWSAVFLNSLFNQEVQIPLTESYCGPCPKNWICYKNNCYQFFDESKNWYESQASCMSQNASLLKVYSKEDQDLLKLVKSYHWMGLVHIPTNGSWQWEDGSILSPNLLTIIEMQKGDCALYASSFKGYIENCSTPNTYICMQRTV"}, "B2": {"name": "sdAb ET2F9 (VHH)", "VHH": "QVQLVQSGGGLVQPGGSLRLSCAASGFTFDDYAMSWVRQAPGKGLEWVSAISWSGRTTYYAESMKGRFTTSRDNAKNTLYLQMNSLKPEDTALYYCARGDVAIRGNLDAWGQGTQVTVSS"}, "B3": {"name": "Fc-NKG2D (Fc fusion)", "chain": "FLNSLFNQEVQIPLTESYCGPCPKNWICYKNNCYQFFDESKNWYESQASCMSQNASLLKVYSKEDQDLLKLVKSYHWMGLVHIPTNGSWQWEDGSILSPNLLTIIEMQKGDCALYASSFKGYIENCSTPNTYICMQRTV"}},
  "key": {"bsfAb ET2F9": {"biological_target": "bsfAb ET2F9", "assay": "flow cytometry"}, "bsfAb ET1F8": {"biological_target": "bsfAb ET1F8", "assay": "flow cytometry"}, "[1]": {"biological_target": "T1, NKG2D on HEK-293T cells co-transfected with NKG2D and DAP10 (UniProt P26718 1-216)", "T1 chain": "B1 chain", "assay": "flow cytometry; table printed under the HEK-293 plot; legend values suggest ELISA"}, "[2]": {"biological_target": "T2, recombinant human NKG2D/Fc chimera (R&D Systems) (human, UniProt P26718 78-216)", "T2 chain": "B3 chain", "assay": "ELISA; table printed under the ELISA plot; legend values suggest HEK-293 cells"}, "sdAb c7b": {"biological_target": "sdAb c7b", "assay": "ELISA; table printed under the ELISA plot; legend values suggest HEK-293 cells"}},
  "data": [
    {"binder": "B1", "values": [
      {"measurement": "Kd", "setting": "bsfAb ET2F9", "value": 33.2, "unit": "nM"},
      {"measurement": "Kd", "setting": "bsfAb ET1F8", "value": 32.5, "unit": "nM"}
    ]},
    {"binder": "B2", "values": [
      {"measurement": "Kd", "setting": "[1]", "value": 41.1, "unit": "nM"},
      {"measurement": "Kd", "setting": "[2]", "value": 1710, "unit": "nM"}
    ]},
    {"binder": "B3", "values": [
      {"measurement": "Kd", "setting": "sdAb c7b", "value": 6.07, "unit": "nM"}
    ]}
  ]
}
